{"source": "the DeepSol protein solubility set"}
{"assay": "soluble on expression in E. coli; label from the status in PepcDB or PDB records"}
{"sequence": "MRLTGKQTWVFQNDIYVNATGTAVGPKEAEGPLGKKFDISYGDLHCGEENWELAERRLMSDSIQQAVQKGNIKTSQIDFFLAGDLLNQTVTANYVARKWGIPFLGMFSACATSMETLAVGSAFIDGGFANRVLATVSSHNATAERQFRYPTEYGGQKPGTANSTVTGAGSILISNEKSAIKITSATIGKVQDLGITNPLDMGAAMAPAAAHTIQQHFEDLRRSADDYDLIVTGDLSAVGTPIAKQLLLEEGYDLGHIYNDCGLMIYESSQEEVFAGGSGCACSAVVTYGHLLHEMQKGNLQRIFVVATGALLSPMMMQQKETIPTIAHGVVFERVKGELEHHHHHH", "soluble on expression in E. coli": "soluble"}
{"sequence": "MRMFSVQPIAFVHNERKEIKDDEWGEVRSRITLTEMYAEKSIQGIEDFSHIEVVFYFHKVTDEQIQYFARHPRNNKDYPEVGIFAQRGKNRPNRIGVTIVKVIKREGKSIIVEGLDAIDGTPILDIKPIMKEFMPTEEIHQPKWATDIMRQYWKGNVVKLEHHHHHH", "soluble on expression in E. coli": "soluble"}
{"sequence": "MRMKKLTTLISAALLSTSVSFVAQAQDTVAIVLSTLNNPFFVTMKDGAEAKAKELGYNLIVLDSQNDPSKELSNVEDLTVRGVKAILINPTDSDAVSNAIRIANRSKIPVLTLDRGASRGEVVSHIASDNVVGGEMAGHFIEAKIGSDAKVIQLEGIAGTSAARERGEGFMNAVKGSKMQLLASQPADFDRTKGLNVMENLLAANPDVQAVFAQNDEMALGALRAIQASGKSVMIVGFDGTDDGIAAVERGQLAATVAQQPDMIGAIGIETADKMLKGEKVEAYIPVALKVIAK", "soluble on expression in E. coli": "not soluble"}
{"sequence": "MRNICFVACMLFCLASASGKTVKNHPFVSIADSILDNVLNLYQTEDGLLTETYPVNPDQKITYLAGGAQQNGTLKASFLWPYSGMMSGCVAMYQATGDKKYKTILEKRILPGLEQYWDGERLPACYQSYPVKYGQHGRYYDDNIWIALDYCDYYRLTKKADYLKKAIALYEYIYSGWSDELGGGIFWCEQQKEAKHTCSNAPSTVLGVKLYRLTKDKKYLNKAKETYAWTRKHLCDPDDFLYWDNINLKGKVSKDKYAYNSGQMIQAGVLLYEETGDKDYLRDAQKTAAGTDAFFRSKADKKDPSVKVHKDMSWFNVILFRGFKALEKIDHNPTYVRAMAENALHAWRNYRDANGLLGRDWSGHNEEPYKWLLDNACLIELFAEIEKLEHHHHHH", "soluble on expression in E. coli": "not soluble"}
{"sequence": "MRNIDFSPLYRHAIGFDRLFNLVENSANKPSQQNGYPPYNIEQKDENNYRITMAVAGFSEDALTISQNEHMLIVSGDITSSEIKPTYVYQGIAERNFERKFQLADYVTVSAASMENGLLHIDLVREVPEAVQARKIAINK", "soluble on expression in E. coli": "not soluble"}
{"sequence": "MRNKILSDGAKELSYEIREIVKKADLINKNGQSIVFENIGDPIQKNNVVPQWIRETISNLTLDNKSYSYSPSKGILKTRQFLAELNNKKAGAQITADDILFFNGLGDAIAKVYQFISRSSRVIGPSPAYSTHSSAEAAHASQDPITYKLDPNNHWYPDLDDLYNKVKYNPNIIGILIINPDNPTGMVYPLETLKRIVEIAREFNLFLLSDEIYLNITYNGARAYSLAEVIEDVPGIAMKGISKEFPWPGSRCGWMEYYNRGKDQDFDKFCSALDNAKMIEVCSTTLPQLAIPVIMSDPRYLPYREELNSKIGKRSKIIAGILGQIPELMFNETYGAFYNTIVFKDGVLNDKQTLPIENAANKALVEKWISEPNVDLDKRFVYYLLAAKGICVVPISSFCSDLKGFRVTLLEENEELLEQTFTSIRDAIRLYLKS", "soluble on expression in E. coli": "not soluble"}
{"sequence": "MRNVDFSPLYRNAIGFDRLLNLMEANTAKNTSGGYPPYNIEQKDEHNYRITMAVAGFSEDQLDLTQNENMLIVKGERKAEEGKNYVYQGIAERDFERKFQLADYVKVTGASMENGLLHIDLVREIPEAMQPRKIAIGGNNLLESN", "soluble on expression in E. coli": "not soluble"}
{"sequence": "MRPQNTNGDFYVDTTCIDCDTCRWMTPEVFHRVDEMSAVYHQPTNETERLAALQALLSCPTSSIGTVEKLEHHHHHH", "soluble on expression in E. coli": "not soluble"}
{"sequence": "MRPVVHVVGGGPGDPELLTVKGARLLGEARFVLYTGSLFPEGALRELAPKAALLDSKGMTLEEIVLALAEEARKGGGVVRLHSGDPGLYGTLLEEKEALEALGVGVEVVPGVTAAFALAARAGLSLTAPGVAQAVAFTRLGVRTPVPEGQDPKSLARKGLTLAVYLSGMHPRRLSRELLEAGLPGDTPVLYGHKVAQPGEEVGLTDLKGLAHLPARDTTVYLVGEALRAKGVRSLLYDPSFKHRYRR", "soluble on expression in E. coli": "soluble"}
{"sequence": "MRRCPLCHSTQTHLLLQDKKRCFYICQTCWLTFADANSHLPPAAEKQRYGRSRIASKQRHLSQFILPLLTQIQQQQNGSLTGLNFGRVLDQTSLETIESAGHTFKQYDPFFAPDHETLKQEYDFICCYRVFEHFQYPIKEWSLLTRLLKPGGWLAISTPLLIDLEGFAKWHYKNNLTHVSFYQRQTFEYLASNSDFELLFAAKDLVLMQKTSLEHHHHHH", "soluble on expression in E. coli": "soluble"}
{"sequence": "MRRFKQQLAGRPAAAEIPLKRWLGVASHRCPAGPKRRRHDVMTCPSTQLRLAPITTGLVRRNPRILLSGPHQPTLVRYLEGWPKRWNGSRTFLIQFAQDGKDLARFPSDAFDFAVVQAPEAEDLDLVVRQLIRVARQGLITRRILR", "soluble on expression in E. coli": "not soluble"}
{"sequence": "MRRFTAFVLGLCLSLPVLAEQVQRFGDLDVHYNVFNSSFLQPNVASAVGLVRSKAQGVINVVPMEKGKPVEAAVTGSAKDLTGKVIPLEFRRVSEEGAIYNLAQFPISQRETLVFTIKVEAKGEPAQTFSFNKEIFPDE", "soluble on expression in E. coli": "not soluble"}
{"sequence": "MRRLVLLLALCFSCSFAQYGLYGSGYNGYGGYGSGYGTGYGMGYGMGYPMNPYMNQVYGYGSNPMMSGGGGMYGAGGCMDLSPQCSVWASTGQCSTNPMMMRQTCAMSCGTCSTGVGALGSMGSYNPFGGYGGMGYPQAGLLDPLAQFIGRSIYETGILRQPTPSSSSKSIGILTKAKSEQLPSR", "soluble on expression in E. coli": "not soluble"}
{"sequence": "MRRMVDHDALHRRWLGALVGARGGAAQPDPAPYGENLLRRWSEPQRRYHTVEHLAAVLDRVDLLAEYADDPDVVRLAAWFHDAVYFPDRSENEERSARLAERALPEAGVSGARTAEVARLVRLTVTHDPADDDRDGRVLCDADLAILAAPPKTYAAYAAAVREEYAFVPDDSFRAGRAAVLRQLLDLPRLFRTPYGEREWEERARENLREELARLDDRGTSGAAQLEHHHHHH", "soluble on expression in E. coli": "not soluble"}
{"sequence": "MRRPPIVRCLFFLNDTIVLELEKTRVISERSNEEVIVVIRKTVKGTDGREYTFVAKEGTFEKLTGLGTTIRGHIPGTDSPFYGILEDGEEGLRAWIMTFRVVNRVPIDSETEEELVRLFLPLVERRRIDRSILLYVE", "soluble on expression in E. coli": "not soluble"}
{"sequence": "MRRQAEAYKAQLAAMVESSDDAIIVKDLNAIITSWNAGAERIFGYQASEITGSSILALIPPERHEEEKGIMSLVKSGNRVDHFETMWWGKGKKPIDVSVTTSAVKDSDGNIVGISQIARDLEHHHHHH", "soluble on expression in E. coli": "not soluble"}
{"sequence": "MRRRWYNNGGFQTLRMLEESSSEVTSSSALGLPPAMVMSPESLASPEYGGLELWGYDDGITYSMAQSLGTCTMEQQQPQPQQQPQQTQPLPSMPLPMPPTTPKSENESMSSGREELSPASSVNGCSTDGEARRQKKGPAPRQQEELCLVCGDRASGYHYNALTCEGCKGFFRRSVTKNAVYICKFGHACEMDMYMRRKCQECRLKKCLAVGMRPECVVPENQCAMKRKEKKAQREKDKLPVSTTTVDDHMPPIMQCDPPPPEAARIHEVVPRFLNEKLMEQNRLKNVPPLTANQKSLIARLVWYQEGYEQPSEEDLKRVTQTWQSDEDDEDSDMPFRQITEMTILTVQLIVEFAKGLPGFAKISQSDQITLLKACSSEVMMLRVARRYDAATDSVLFANNQAYTRDNYRKAGMAYVIEDLLHFCRCMYSMMMDNVHYALLTAIVIFSDRPGLEQPLLVEEIQRYYLNTLRVYILNQNSASPRCAVIFGKILGILTEIRTLGMQNSNMCISLKLKNRKLPPFLEEIWDVADVATTATPVAAEAPAPLAPAPPARPPATV", "soluble on expression in E. coli": "soluble"}
{"sequence": "MRRSLVVAVMAIMPMVGLANQNSRPDIQVNVPPEVFSTRGQSSQPCIQCCVYQDQNYSEGAVIKVEGVVLQCQRDEKTISTNPLVWRRVKPLEHHHHHH", "soluble on expression in E. coli": "not soluble"}
{"sequence": "MRRYLEHLMIKLSEKGVFLASNNEIIAEEHFTGEIKKEEAKKGTIAWSILSSHNTSGNMDKLKIKFDSLASHDITFVGIVQTAKASGMERFPLPYVLTNCHNSLCAVGGTINGDDHVFGLSAAQRYGGIFVPPHIAVIHQYMREMMAGGGKMILGSDSHTRYGALGTMAVGEGGGELVKQLLNDTWDIDYPGVVAVHLTGKPAPYVGPQDVALAIIGAVFKNGYVKNKVMEFVGPGVSALSTDFRNSVDVMTTETTCLSSVWQTDEEVHNWLALHGRGQDYCQLNPQPMAYYDGCISVDLSAIKPMIALPFHPSNVYEIDTLNQNLTDILREIEIESERVAHGKAKLSLLDKVENGRLKVQQGIIAGCSGGNYENVIAAANALRGQSCGNDTFSLAVYPSSQPVFMDLAKKGVVADLIGAGAIIRTAFCGPCFGAGDTPINNGLSIRHTTRNFPNREGSKPANGQMSAVALMDARSIAATAANGGYLTSASELDCWDNVPEYAFDVTPYKNRVYQGFVKGATQQPLIYGPNIKDWPELGALTDNIVLKVCSKILDEVTTTDELIPSGETSSYRSNPIGLAEFTLSRRDPGYVSRSKATAELENQRLAGNVSELTEVFARIKQIAGQEHIDPLQTEIGSMVYAVKPGDGSAREQAASCQRVIGGLANIAEEYATKRYRSNVINWGMLPLQMAEVPTFEVGDYIYIPGIKAALDNPGTTFKGYVIHEDAPVTEITLYMESLTAEEREIIKAGSLINFNKNRQM", "soluble on expression in E. coli": "not soluble"}
{"sequence": "MRSDGRKEDQLRPVSIQRDFLEYPEGSCLISFGKTKVICTASVIENVPNWLKGKGQGWITAEYSMLPRATQQRTIRESVQGRIGGRTHEIQRMIGRAMRTAVELTKIGERTIWVDCDVIQADGGARTAAITGAFVAVADAIIKLHKEGIIEETPIKDFVAAVSVGIVNDRILLDLNFEEDSAAQVDMNVVGTGSGRLSEVHTMGEEYSFTKDELIKMLDLAQKGINELIELQKKLYVIQDGKWERSELKEVSSTT", "soluble on expression in E. coli": "soluble"}
{"sequence": "MRSERSERSDDTDGDTTALALKILVAGGFGVGKTTLVGAVSEIRPLRTEELLSEAGRLVDDTDGIDRKVTTTVAMDFGRITIRSGLSLYLFGTPGQDRFWFLWDELAQGALGAVVLADTRRLADCFPAVDYFEHRHIPFVVAVNCFTGARRHDEYSVLRALDLDPGTPVVLCDARDRDSGKEVLIRLVEYAGRMHTARLLDSVRLEHHHHHH", "soluble on expression in E. coli": "not soluble"}
{"sequence": "MRSYRAQGPLPGFYHYYPGVPAVVGVRVEERVNFCPAVWNTGLSADPPLFGVSISPKRFTHGLLLKARRFSASFHPFGQKDLVHWLGSHSGREVDKGQAPHFLGHTGVPILEGAYAAYELELLEVHTFGDHDLFVGRVVAVWEEEGLLDEKGRPKPGLALLYYGKGLYGRPAEETFAP", "soluble on expression in E. coli": "soluble"}
{"sequence": "MRTATSTSPATGTPAPVPSRTPDVTVTVIVYNDAGRLPRAVASALRQSHANIEVVISDDHSTDATEEVARELAAHDPRVVYLRLPENSGGCSAPRNRALEIARAPYLMFLDSDDELPERAVEVLLAAHRERDLDFAMGAVHRIREDGGRRTTWMPHLVAERRTLDGIEADPRLLFEHLSTSKMYARAFLDRHGLRFPEGIHYEDQLFSAQAYCLAKTFTVVPEPVYRWYIAPYADADSASISNQRHKLTNVRDRVHVQRLIDAFLAESGHEALREDKDFKFLKHDFRMYAGDLPYRDDTWLASFADLMNPYLDTLAEGAYARLPRAERVVLRLLRDRRLSDVRTAARGLGHDVAPRRVTPDEQSGRVYWGEEVPASPESRRELDLTDLDLDTRPFFTALLRHEITEITRGPGASVDLTVRTYDPALRLPVGPQRAVLHLSPGPRRLTVPFRLSPVRPGLFEGRVRLDLAAARLPLHGFAGTRHPVLRLRHRGRTHTGILLAPLAFPPLTARVPYRTGLTPHRVTLRPEGHNPGRLQITWQPVGTTAKILGPAARRLSTPRTRRAARLLSNILRLEHHHHHH", "soluble on expression in E. coli": "soluble"}
